± gives the uncertainty stated by the source.
Assay: protein stability index of a GFP-peptide fusion (yeast GPS) (PSI 1-4); higher = more stable; sorted into four equal gates, so the index is relative within each strain
Outline: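 Mid-log yeast cultures in leucine-free medium, carrying a pooled plasmid library, were sorted into four equal gates by their GFP/Cherry fluorescence ratio. Each plasmid expressed Cherry along with GFP fused upstream of a tiled 17-residue yeast protein peptide. Plasmids recovered from each gate were PCR-amplified and Illumina-sequenced, with reads assigned to strains by barcodes. The protein stability index was obtained by summing each gate's read frequency weighted by its gate number.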

| Sequence | protein stability index (doa10∆) | protein stability index (pdr5∆) | protein stability index (san1∆) | protein stability index (ubr1∆) |
| --- | --- | --- | --- | --- |
| PQENDLESKMSEVGDAF [SMC3] | 2.73 ± 0.2 | 3.36 ± 0.2 | 3.43 ± 0.11 | 2.98 ± 0.22 |
| RKVREQEELKKRQELEE [MED2] | 1.86 ± 0.039 | 2.36 ± 0.048 | 1.96 ± 0.1 | 2.55 ± 0.033 |
| AAQTLLQMDYKDDMKVD [PRE9] | 3.3 ± 0.1 | 3.3 ± 0.068 | 3.25 ± 0.063 | 3.26 ± 0.084 |
| ATRTLVASIQNDPSAEV [YCG1] | – | 3.41 ± 0.16 | 2.79 ± 0.27 | – |
| QILPESQWNDSSIDKIE [SIR3] | – | 3.42 ± 0.18 | – | 2.81 ± 0.12 |
| DLKFKRHKNKHIQGFPT [DSN1] | 3.15 ± 0.13 | 3.38 ± 0.28 | 1.75 ± 0.12 | 2.98 ± 0.12 |
| STTEHINIDDLLYELTA [YJL039C/NUP192] | 2.82 ± 0.11 | 2.61 ± 0.092 | 2.43 ± 0.099 | 3.05 ± 0.053 |
| VAIACDLRLGSQSLGVS [PUP3] | – | 2.75 ± 0.26 | 2.85 ± 0.17 | – |
| EKADYERELISNIEQTE [YIL149C/MLP2] | 3.34 ± 0.079 | 3.48 ± 0.087 | 3.27 ± 0.063 | 3.6 ± 0.098 |
| LYKTFFKRNAVFVGTIF [QCR9] | 1.78 ± 0.075 | 1.36 ± 0.051 | 1.39 ± 0.098 | 1.36 ± 0.054 |
| HPKIVKKHTKKFKRHHS [RPL32] | 2.74 ± 0.054 | 3.06 ± 0.059 | 2.66 ± 0.045 | 3.02 ± 0.037 |
| IEQFAMRRNSKILNIIK [POP5] | 3.08 ± 0.084 | 2.88 ± 0.077 | 2.86 ± 0.076 | 3.23 ± 0.07 |
| GKKVLNKNQLLKRNRIR [POP1] | 2.88 ± 0.068 | 3.08 ± 0.055 | 2.94 ± 0.064 | 3.05 ± 0.053 |
| NQNFSLTFQPQQQTNAL [GRR1] | 2.95 ± 0.065 | 3.2 ± 0.061 | 3.02 ± 0.067 | 2.94 ± 0.057 |
| KSCEPVSISTSVKPHVV [SIR4] | 2.6 ± 0.069 | 2.97 ± 0.077 | 2.28 ± 0.11 | 2.42 ± 0.045 |
| TNWDDHAIIIFGYPETI [YMR153W/NUP53] | 2.45 ± 0.062 | 2.63 ± 0.048 | 2.3 ± 0.077 | 2.71 ± 0.038 |
| QGDEALSVDDIRGAVGN [RTT102] | 3.35 ± 0.096 | 3.49 ± 0.12 | 3.24 ± 0.059 | 3.41 ± 0.085 |
| PSINLDPDNTSFSDENS [ESC2] | 2.83 ± 0.072 | 2.93 ± 0.054 | 2.58 ± 0.064 | 3.07 ± 0.029 |
| YQISAYQTRARQKARTD [RPR2] | 2.19 ± 0.027 | 2.31 ± 0.026 | 2.36 ± 0.031 | 2.407 ± 0.023 |

| Sequence | protein stability index (doa10∆) | protein stability index (pdr5∆) | protein stability index (san1∆) | protein stability index (ubr1∆) |
| --- | --- | --- | --- | --- |
| QQNYSKVLLPSINISCV [SWI1] | 1.85 ± 0.067 | 1.71 ± 0.059 | 1.87 ± 0.16 | 2.53 ± 0.054 |
| VITLLNNSSITLRCSVV [YCS4] | 2.04 ± 0.06 | 1.2 ± 0.062 | 1.21 ± 0.12 | 1.16 ± 0.051 |
| KNDEVLGLLLPIAASTD [RPN1] | 2.02 ± 0.055 | 2.3 ± 0.062 | 2.47 ± 0.063 | 2.6 ± 0.071 |
| NSMEYTGKITKMFQDIR [CDC53] | 3.06 ± 0.27 | 3.41 ± 0.14 | 2.96 ± 0.085 | 3.28 ± 0.078 |
| GSAATSGFEFSKEDTLR [RPN1] | 2.61 ± 0.15 | 3.14 ± 0.16 | 2.72 ± 0.15 | 3.08 ± 0.13 |
| IVACELILSGDTTANNG [YJL039C/NUP192] | 2.66 ± 0.067 | 2.46 ± 0.068 | 2 ± 0.077 | 1.7 ± 0.032 |
| VLKFLTDLEKKHLWDQK [RPC17] | 3.14 ± 0.24 | 3.41 ± 0.16 | 3.18 ± 0.14 | 3.47 ± 0.14 |
| RAGGAAASLIMPFLDNQ [PRE7] | – | – | – | 1.11 ± 0.11 |
| IKGQCLATLLGHNDWVS [ASC1] | 1.37 ± 0.083 | 1.69 ± 0.083 | 1.72 ± 0.11 | 1.65 ± 0.066 |
| GKEHIVAALVSLTEKFS [ECM29] | 1.73 ± 0.047 | 1.95 ± 0.055 | 1.58 ± 0.084 | 1.63 ± 0.042 |
| ILEELDFVRNELNDIDT [SMC3] | 3.08 ± 0.2 | – | – | – |
| TAIGIATKEGVVLGVEK [PUP2] | 3.15 ± 0.14 | 3.31 ± 0.11 | 2.79 ± 0.16 | 3.11 ± 0.058 |
| ETATSERNASEVRDATL [GRR1] | 3.53 ± 0.19 | 3.45 ± 0.19 | – | 3.52 ± 0.19 |
| EQISNNSNQQQNPKLFQ [SIN4] | 2.96 ± 0.062 | 2.67 ± 0.045 | 3.13 ± 0.062 | 2.95 ± 0.052 |
| LGKAQNWAKFTATASLG [RPN2] | 2.55 ± 0.059 | 2.56 ± 0.059 | 2.18 ± 0.069 | 2.28 ± 0.065 |
| KTEYVLNDLNHLLVQLQ [REC8] | – | 3.02 ± 0.25 | – | 3.02 ± 0.094 |
| SIISSKTSCVVEKRIGK [RGR1] | 2.46 ± 0.089 | 2.62 ± 0.084 | 2.59 ± 0.093 | 2.69 ± 0.05 |
| IIRHEKELEPWDLQLQE [SMC4] | 3.28 ± 0.15 | 2.82 ± 0.13 | – | 3.47 ± 0.16 |
| TAGAAANALGGLGVNRR [SSN3] | 3.51 ± 0.11 | 3.04 ± 0.11 | 3.38 ± 0.089 | 3.24 ± 0.1 |

| Sequence | protein stability index (doa10∆) | protein stability index (pdr5∆) | protein stability index (san1∆) | protein stability index (ubr1∆) |
| --- | --- | --- | --- | --- |
| NVLLLDSNGDFNEDQLF [RRP46] | 3.17 ± 0.064 | 3.04 ± 0.054 | 3.32 ± 0.055 | 3.17 ± 0.044 |
| AFSFGAKSNEDKQDGTA [YJL041W/NSP1] | 3.24 ± 0.13 | 2.98 ± 0.16 | 3 ± 0.2 | 3.44 ± 0.14 |
| LNELHPTLPTNHNKTKL [PRP8] | 2.88 ± 0.064 | 3.08 ± 0.062 | 2.84 ± 0.056 | 2.72 ± 0.039 |
| LEASYSKSYTPRKLVLS [SMC4] | 2.31 ± 0.043 | 2.52 ± 0.059 | 2.11 ± 0.088 | 2.22 ± 0.05 |
| SGQKAGLIAARRTGLLR [RPL2A] | 3.07 ± 0.19 | 3.43 ± 0.11 | 3.15 ± 0.067 | 2.72 ± 0.16 |
| NVSNTFNKTTNIDINNE [YJL041W/NSP1] | 3.1 ± 0.068 | 3.28 ± 0.065 | 2.68 ± 0.073 | 3.08 ± 0.051 |
| PQKNVKIQVVDRHIGCV [PRE10] | – | 2.72 ± 0.27 | – | – |
| NATEVQKESDAKNETNS [ITC1] | 2.67 ± 0.077 | 3.05 ± 0.11 | 2.67 ± 0.11 | 2.59 ± 0.2 |
| NTEEKAELQSNLQVELL [YGL100W/SEH1] | 3.06 ± 0.064 | 3.02 ± 0.087 | 1.96 ± 0.13 | 2.74 ± 0.083 |
| KRKKEANEEPNTENVES [ITC1] | 3.1 ± 0.062 | 2.74 ± 0.046 | 2.78 ± 0.07 | 2.65 ± 0.034 |
| VEAQSHRLTLEDPVTVE [PRE6] | 3.23 ± 0.15 | 3.88 ± 0.25 | – | – |
| HASENISLSFSRPASYG [SIR4] | 2.53 ± 0.064 | 2.53 ± 0.044 | 2.74 ± 0.049 | 3.19 ± 0.045 |
| IVEADEKKGIVQASVTS [RET1] | 2.66 ± 0.15 | 2.6 ± 0.11 | – | 1.7 ± 0.086 |
| KNDTHYLLPDDFHFSTD [BRN1] | 2.81 ± 0.072 | 3.19 ± 0.074 | 2.9 ± 0.055 | 2.95 ± 0.065 |
| LGNIASSFYINHASMDV [BRR2] | 2.84 ± 0.12 | 2.67 ± 0.12 | 2.88 ± 0.1 | 3.27 ± 0.15 |
| KVIEQPITSETAMKKVE [RPL25] | 3.02 ± 0.092 | 2.94 ± 0.066 | 2.88 ± 0.066 | 2.93 ± 0.074 |
| KSMITSEGEQKSAEGNN [YAR002W/NUP60] | 3.2 ± 0.047 | 3.19 ± 0.045 | 3.25 ± 0.035 | 3.17 ± 0.041 |
| EREVFVDVKPKSPKERE [RPC25] | – | 2.98 ± 0.17 | – | 3.34 ± 0.13 |

Source: the supplement of paper PMC9732359
